Source: IntAct's records for PubMed 31704776

B1: Meiotic recombination protein REC114 (Homo sapiens), Q7Z4M0 (parent)
chain: MAEAGKVPLSLGLTGGEAAEWPLQRYARCIPSNTRDPPGPCLEAGTAPCPTWKVFDSNEESGYLVLTIVISGHFFIFQGQTLLEGFSLIGSKDWLKIVRRVDCLLFGTTIKDKSRLFRVQFSGESKEQALEHCCSCVQKLAQYITVQVPDGNIQELQLIPGPPRATESQGKDSAKSVPRQPGSHQHSEQQQVCVTAGTGAPDGRTSLTQLAQTLLASEELPHVYEQSAWGAEELGPFLRLCLMDQNFPAFVEEVEKELKKLAGLRN
partner: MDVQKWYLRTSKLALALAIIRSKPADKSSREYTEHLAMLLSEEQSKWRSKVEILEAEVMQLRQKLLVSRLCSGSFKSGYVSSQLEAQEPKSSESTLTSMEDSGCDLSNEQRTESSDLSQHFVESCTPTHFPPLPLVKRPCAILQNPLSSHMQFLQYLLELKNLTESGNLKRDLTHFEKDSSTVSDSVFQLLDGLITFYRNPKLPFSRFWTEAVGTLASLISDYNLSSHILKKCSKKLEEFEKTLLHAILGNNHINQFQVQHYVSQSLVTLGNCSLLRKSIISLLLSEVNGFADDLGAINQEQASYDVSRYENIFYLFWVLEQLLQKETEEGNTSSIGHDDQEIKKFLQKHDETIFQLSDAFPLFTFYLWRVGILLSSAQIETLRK

Variants of: B1
Conditions: with mei4_human MEI4, A8MW99

| effect of a mutation on the interaction | Variant |
| --- | --- |
| with no effect | MAEAGKVPLSLGLTGGEAAEWPLQRYARCIPSNTRDPPGPCLEAGTAPCPTWKVFDSNEESGYLVLTIVISGHFFIFQGQTLLEGFSLIGSKDWLKIVRRVDCLLFGTTIKDKSRLFRVQFSGESKEQALEHGCSCVQKLAQYITVQVPDGNIQELQLIPGPPRATESQGKDSAKSVPRQPGSHQHSEQQQVCVTAGTGAPDGRTSLTQLAQTLLASEELPHVYEQSAWGAEELGPFLRLCLMDQNFPAFVEEVEKELKKLAGLRN [C133G] |
